Test results from paper PMC2756588.

T1: Lsb4, P32793
T1 sequence (P32793 402-468, looked up): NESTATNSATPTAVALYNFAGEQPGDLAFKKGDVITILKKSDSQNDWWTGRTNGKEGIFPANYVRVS

T2: Hof1, Q05080
T2 sequence (Q05080 590-669, looked up): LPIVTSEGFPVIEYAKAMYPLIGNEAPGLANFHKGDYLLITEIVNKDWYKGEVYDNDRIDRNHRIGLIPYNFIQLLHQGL

T3: Bzz1-2, P38822
T3 sequence (P38822 568-633, looked up): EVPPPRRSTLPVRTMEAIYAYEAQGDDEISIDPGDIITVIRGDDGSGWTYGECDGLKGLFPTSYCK

T4: Sla1-3, P32790
T4 sequence (P32790 344-424, looked up): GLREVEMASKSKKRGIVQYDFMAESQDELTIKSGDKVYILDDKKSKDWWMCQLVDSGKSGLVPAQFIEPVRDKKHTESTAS

T5: Hse1, P38753
T5 sequence (P38753 208-285, looked up): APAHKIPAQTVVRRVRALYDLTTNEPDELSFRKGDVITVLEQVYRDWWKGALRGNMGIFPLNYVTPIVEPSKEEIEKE

T6: Myo5, Q04439
T6 sequence (Q04439 1072-1160, looked up): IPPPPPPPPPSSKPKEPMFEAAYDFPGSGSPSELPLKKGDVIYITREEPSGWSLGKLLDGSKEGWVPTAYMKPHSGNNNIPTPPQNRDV

T7: Bzz1-1, P38822
T7 sequence (P38822 478-572, looked up): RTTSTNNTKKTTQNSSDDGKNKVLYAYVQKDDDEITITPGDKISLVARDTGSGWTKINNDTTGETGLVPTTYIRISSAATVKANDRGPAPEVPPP

T8: Pin3, Q06449
T8 sequence (Q06449 53-122, looked up): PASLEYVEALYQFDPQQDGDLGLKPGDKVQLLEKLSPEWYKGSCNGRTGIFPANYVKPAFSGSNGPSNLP

T9: Abp1, P15891
T9 sequence (P15891 535-592, looked up): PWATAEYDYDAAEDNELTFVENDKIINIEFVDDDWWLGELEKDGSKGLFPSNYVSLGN

T10: Lsb3, P43603
T10 sequence (P43603 385-451, looked up): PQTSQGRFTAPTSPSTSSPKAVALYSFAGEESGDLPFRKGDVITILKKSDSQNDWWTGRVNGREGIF

T11: Boi2, P39969
T11 sequence (P39969 32-116, looked up): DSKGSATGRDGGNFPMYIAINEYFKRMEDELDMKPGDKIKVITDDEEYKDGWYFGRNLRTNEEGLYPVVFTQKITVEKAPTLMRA

T12: Bud14, P27637
T12 sequence (P27637 247-328, looked up): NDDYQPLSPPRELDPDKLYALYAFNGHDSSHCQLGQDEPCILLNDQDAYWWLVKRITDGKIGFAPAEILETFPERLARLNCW

T13: Cyk3, Q07533
T13 sequence (Q07533 1-83, looked up): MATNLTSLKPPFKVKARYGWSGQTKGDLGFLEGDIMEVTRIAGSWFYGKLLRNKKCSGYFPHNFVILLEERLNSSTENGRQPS

T14: Boi1, P38041
T14 sequence (P38041 1-86, looked up): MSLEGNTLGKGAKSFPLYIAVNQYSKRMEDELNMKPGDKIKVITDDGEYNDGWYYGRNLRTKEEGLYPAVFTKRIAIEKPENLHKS

T15: Fus1, P11710
T15 sequence (P11710 432-512, looked up): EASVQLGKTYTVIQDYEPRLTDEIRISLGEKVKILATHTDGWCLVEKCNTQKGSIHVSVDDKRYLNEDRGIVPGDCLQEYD

T16: Bbc1, P47068
T16 sequence (P47068 1-78, looked up): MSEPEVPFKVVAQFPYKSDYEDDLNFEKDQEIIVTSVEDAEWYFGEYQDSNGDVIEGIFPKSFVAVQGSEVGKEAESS

T17: Pex13, P80667
T17 sequence (P80667 295-386, looked up): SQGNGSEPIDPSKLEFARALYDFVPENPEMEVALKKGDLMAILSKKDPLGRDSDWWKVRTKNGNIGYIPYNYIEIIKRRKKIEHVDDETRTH

T18: Cdc25, P04821
T18 sequence (P04821 50-136, looked up): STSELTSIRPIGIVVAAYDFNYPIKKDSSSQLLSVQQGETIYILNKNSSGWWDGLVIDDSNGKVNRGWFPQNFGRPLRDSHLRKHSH

T19: Sla1-2, P32790
T19 sequence (P32790 60-140, looked up): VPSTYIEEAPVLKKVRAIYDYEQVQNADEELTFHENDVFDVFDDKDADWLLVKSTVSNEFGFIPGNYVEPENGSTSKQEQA

T20: Nbp2, Q12163
T20 sequence (Q12163 103-180, looked up): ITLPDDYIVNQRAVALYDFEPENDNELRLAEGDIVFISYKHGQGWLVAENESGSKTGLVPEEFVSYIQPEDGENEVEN

T21: Lsb1, P53281
T21 sequence (P53281 45-122, looked up): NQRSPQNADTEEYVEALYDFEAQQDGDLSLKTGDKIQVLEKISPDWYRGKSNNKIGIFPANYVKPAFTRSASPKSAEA

B1: unnamed (peptide)
chain: PALPSLPPPPLLNVD
B2: unnamed (peptide)
chain: GATNNAPTLPKRKNP
B3: unnamed (peptide)
chain: KKAPPPVVKPKPRNF
B4: unnamed (peptide)
chain: SSSSSPPPLPTRRDH

Columns and labels:
Assay in all cases: SPOT array
[1] = target: T1, Lsb4, P32793; conditions: median of control spots 397
[2] = target: T2, Hof1, Q05080; conditions: median of control spots 4086
[3] = target: Bem1-2, P29366; conditions: median of control spots 4347
Chain of Bem1-2, P29366 (P29366 139-227): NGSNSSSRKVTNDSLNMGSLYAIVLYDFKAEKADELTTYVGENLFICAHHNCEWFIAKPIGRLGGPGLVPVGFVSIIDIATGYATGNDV

[4] = target: GST; conditions: median of control spots 978
[5] = target: T3, Bzz1-2, P38822; conditions: median of control spots 4538
[6] = target: T4, Sla1-3, P32790; conditions: median of control spots 5475
[7] = target: T5, Hse1, P38753; conditions: median of control spots 1727
[8] = target: T6, Myo5, Q04439; conditions: median of control spots 471
[9] = target: T7, Bzz1-1, P38822; conditions: median of control spots 4446
[10] = target: Myo3, P36006; conditions: median of control spots 468
[11] = target: T8, Pin3, Q06449; conditions: median of control spots 2171
[12] = target: T9, Abp1, P15891; conditions: median of control spots 935
[13] = target: T10, Lsb3, P43603; conditions: median of control spots 406
[14] = target: T11, Boi2, P39969; conditions: median of control spots 1161
[15] = target: T12, Bud14, P27637; conditions: median of control spots 956
[16] = target: T13, Cyk3, Q07533; conditions: median of control spots 1451
[17] = target: T14, Boi1, P38041; conditions: median of control spots 1162
[18] = target: T15, Fus1, P11710; conditions: median of control spots 1200
[19] = target: T16, Bbc1, P47068; conditions: median of control spots 796
[20] = target: Sho1, P40073; conditions: median of control spots 1148
Chain of Sho1, P40073 (P40073 287-367): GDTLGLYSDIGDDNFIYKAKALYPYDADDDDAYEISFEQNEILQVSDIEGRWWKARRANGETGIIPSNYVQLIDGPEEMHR

[21] = target: T17, Pex13, P80667; conditions: median of control spots 1341
[22] = target: T18, Cdc25, P04821; conditions: median of control spots 969
[23] = target: T19, Sla1-2, P32790; conditions: median of control spots 712
[24] = target: Bem1-1, P29366; conditions: median of control spots 4282
Chain of Bem1-1, P29366 (P29366 55-141): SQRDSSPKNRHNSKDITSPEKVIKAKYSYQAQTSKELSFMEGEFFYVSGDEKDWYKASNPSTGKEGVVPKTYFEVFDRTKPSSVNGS

[25] = target: Rvs167, P39743; conditions: median of control spots 2707
Chain of Rvs167, P39743 (P39743 419-482): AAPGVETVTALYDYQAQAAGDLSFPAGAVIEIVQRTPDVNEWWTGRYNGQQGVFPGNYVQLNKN

[26] = target: T20, Nbp2, Q12163; conditions: median of control spots 357
[27] = target: T21, Lsb1, P53281; conditions: median of control spots 388

Binder | SPOT intensity [1] | SPOT intensity [2] | SPOT intensity [3] | SPOT intensity [4] | SPOT intensity [5] | SPOT intensity [6] | SPOT intensity [7] | SPOT intensity [8] | SPOT intensity [9] | SPOT intensity [10] | SPOT intensity [11] | SPOT intensity [12] | SPOT intensity [13] | SPOT intensity [14] | SPOT intensity [15] | SPOT intensity [16] | SPOT intensity [17] | SPOT intensity [18] | SPOT intensity [19] | SPOT intensity [20] | further results
B1 | 0 | 6720 | 0 | 0 | 0 | 0 | 0 | 688 | 2 | 598 | 0 | 0 | 0 | 0 | 1 | 0 | 0 | 0 | 0 | 83 | SPOT intensity [21]: 2; SPOT intensity [22]: 0; SPOT intensity [23]: 0; SPOT intensity [24]: 0; SPOT intensity [25]: 0; SPOT intensity [26]: 0; SPOT intensity [27]: 0
B2 | 570 | 0 | 9 | 0 | 0 | 1 | 1 | 0 | 0 | 0 | 0 | 36 | 425 | 58 | 0 | 0 | 12 | 2 | 6 | 2 | SPOT intensity [21]: 27; SPOT intensity [22]: 1; SPOT intensity [23]: 92; SPOT intensity [24]: 0; SPOT intensity [25]: 2550; SPOT intensity [26]: 0; SPOT intensity [27]: 64
B3 | 0 | 10 | 0 | 3 | 360 | 0 | 0 | 0 | 10 | 0 | 1 | 899 | 0 | 3 | 3 | 5 | 0 | 1 | 2 | 21 | SPOT intensity [21]: 4; SPOT intensity [22]: 15; SPOT intensity [23]: 2; SPOT intensity [24]: 0; SPOT intensity [25]: 1; SPOT intensity [26]: 0; SPOT intensity [27]: 4
B4 | 748 | 16 | 13 | 1 | 3 | 7 | 4 | 19 | 6 | 69 | 0 | 0 | 485 | 4 | 0 | 1 | 4 | 1 | 3 | 0 | SPOT intensity [21]: 467; SPOT intensity [22]: 15; SPOT intensity [23]: 0; SPOT intensity [24]: 8; SPOT intensity [25]: 3540; SPOT intensity [26]: 0; SPOT intensity [27]: 463
